Source: patent publication US20200199081

How the values were obtained:
[1] = target: HA-tagged wild-type NRAS (HA-NRASWT)
[2] = target: HA-tagged NRASQ61R (HA-NRASQ61R)
[3] = target: HA-NRASS89A
[4] = target: HA-NRASQ61R/S89A

B1: Flag-tagged STK19D89N (protein)
chain: MQKWFSAFDDAIIQRQWRANPSRGGGGVSFTKEVDTNVATGAPPRRQRVPGRACPWREPIRGRRGARPGGGDAGGTPGETVRHCSAPENPIFRFSSLHSYPFPGTIKSRDMSWKRHHLIPETFGVKRRRKRGPVESDPLRGEPGSARAAVSELMQLFPRGLFEDALPPIVLRSQVYSLVPDRTVADRQLKELQEQGEIRIVQLGFDLDAHGIIFTEDYRTRVCDCVLKACDGRPYAGAVQKFLASVLPACGDLSFQQDQMTQTFGFRDSEITHLVNAGVLTVRDAGSWWLAVPGAGRFIKYFVKGRQAVLSMVRKAKYRELLLSELLGRRAPVVVRLGLTYHVHDLIGAQLVDCISTTSGTLLRLPET
in vitro kinase assay, phosphorylation of NRAS [1]: phosphorylation of purified recombinant NRAS was enhanced by STK19D89N to a higher extent than by STK19WT
in vitro kinase assay, phosphorylation of NRAS [2]: phosphorylation of purified recombinant NRAS was enhanced by STK19D89N to a higher extent than by STK19WT

B2: Flag-tagged kinase-dead STK19K317P (protein)
chain: MQKWFSAFDDAIIQRQWRANPSRGGGGVSFTKEVDTNVATGAPPRRQRVPGRACPWREPIRGRRGARPGGGDAGGTPGETVRHCSAPEDPIFRFSSLHSYPFPGTIKSRDMSWKRHHLIPETFGVKRRRKRGPVESDPLRGEPGSARAAVSELMQLFPRGLFEDALPPIVLRSQVYSLVPDRTVADRQLKELQEQGEIRIVQLGFDLDAHGIIFTEDYRTRVCDCVLKACDGRPYAGAVQKFLASVLPACGDLSFQQDQMTQTFGFRDSEITHLVNAGVLTVRDAGSWWLAVPGAGRFIKYFVKGRQAVLSMVRKAPYRELLLSELLGRRAPVVVRLGLTYHVHDLIGAQLVDCISTTSGTLLRLPET
phosphorylated serine levels in NRAS (immunoblot) [2]: The upregulation of phosphorylated serine levels in NRAS was also diminished by overexpression of a kinase-dead STK19 K317P mutant

B3: Flag-tagged STK19 wild type (STK19-Flag) (protein)
chain: MQKWFSAFDDAIIQRQWRANPSRGGGGVSFTKEVDTNVATGAPPRRQRVPGRACPWREPIRGRRGARPGGGDAGGTPGETVRHCSAPEDPIFRFSSLHSYPFPGTIKSRDMSWKRHHLIPETFGVKRRRKRGPVESDPLRGEPGSARAAVSELMQLFPRGLFEDALPPIVLRSQVYSLVPDRTVADRQLKELQEQGEIRIVQLGFDLDAHGIIFTEDYRTRVCDCVLKACDGRPYAGAVQKFLASVLPACGDLSFQQDQMTQTFGFRDSEITHLVNAGVLTVRDAGSWWLAVPGAGRFIKYFVKGRQAVLSMVRKAKYRELLLSELLGRRAPVVVRLGLTYHVHDLIGAQLVDCISTTSGTLLRLPET
in vitro kinase assay, phosphorylation of NRAS [3]: mutation of S89 to alanine (S89A) abolished phosphorylation of NRASWT and NRASQ61R
in vitro kinase assay, NRAS preloaded with GDP, GTP or GTPγS [1]: a higher STK19-induced phosphorylation of the GTP- and GTPγS-loaded NRAS than GDP-loaded NRAS
serine phosphorylation of NRAS (immunoblot after NRAS immunoprecipitation, HPMs) [1]: only a marginal increase in phosphorylation of NRASWT was detected
in vitro kinase assay, phosphorylation of NRAS [4]: mutation of S89 to alanine (S89A) abolished phosphorylation of NRASWT and NRASQ61R
